The supplement of paper PMC9170038

Tested on: MS2 coat protein
Assay: apparent KD of MS2 coat protein; higher = weaker reporter binding
Conditions: Eterna round: R107; input ligand: arginine 13.2 mM
Description: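 RNA-MaP round R107: designed RNA switches with theophylline, tryptophan, arginine or FMN aptamers are transcribed on-chip within common flanks. They are titrated with SNAP-549-labelled MS2 coat protein in RNA-MaP buffer (100 mM Tris pH 7.5, 80 mM KCl, 4 mM MgCl2), without ligand or with the indicated ligand. Median apparent KD per design.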

For “ACCUCAAUGGAUGAUACCAGCUCAAGGACGAACAUGAGGAUCACCCAUGUGACGUGGUGUAGCCCUUGGCAGCAUACUGACACCU [theeternabot_sameState_MS2_Theo_B_24]”, the “apparent KD of MS2 coat protein” value was 34.6 nM.

Same assay, conditions: Eterna round: R107; input ligand: none

First: AAAAGAGGUGGAAGGAGCGGGAGACAUGAGGAUCACCCAUGUGAAGUUACGAAAGGUUCAGCCCAGGUAGGUCGCCAUGUCGAAA [eefemullin]
Second: AGAGUCAGACAAAAGUCUGGCUCAGCCGAAGGAGCGUCCGAAAGGACAGGUAGGUCGCGGUUACCUGAGGAUCACCCGGGUUCCU [ArgAS 25 #OpenEnded #AlternativeMS2]
The “apparent KD of MS2 coat protein” value of the first is 13-fold lower: 17.5 nM for the first, 219 nM for the second.

First: AGUCUUAAAGGAAGGAGCGCAGUCAUAACAUGAGGAUCACCCAUGUCGAUGUGAGGGUCAUUGCAGGUAGGUCGCCUUACUAAGA [Same State - Arginine B (Freestyle 5)]
Second: UUGUUGUACGGAAGGAGCGUGUAAGAUUAAGAACAUGAGGAUCACCCAUGUUUUAAGGGAACACAGGUAGGUCGCCGUGUGGUGG [11.Q]
The “apparent KD of MS2 coat protein” value of the first is 2.7-fold higher: 40.4 nM for the first, 15.1 nM for the second.

“ACAUUUAACUGAAGGAGCGUGAUAUACAUGAGGAUCACCCAUGUGUCUUUCAUGAAUAAUUCACAGGUAGGUCGCAGACUAAUGA [JR_ExcArginiB_Sub008]” and “AGUAGCUGCCGAAGGAGCGCCGUGUUCCUACAUGAGGAUCACCCAUGUAGCGUUGGGUUACGGCAGGUAGGUCGCGGCGGAUAGG [Same State - Arginine B / B]” are within 1.5-fold of each other in “apparent KD of MS2 coat protein” value: 36.1 nM for the first, 34.3 nM for the second.

Compared with “GCUAGUGGCAGAAGGAGCGACAUUAAAAGUGGUCGAUACAUGAGGAUCACCCAUGUACUAUGUCAGGUAGGUCGCUGCCACUAGC [EAB NP+V+V2 #4 +-Same Structure]”, “UCACGGCACUGAAGGAGCGAGUUGACAAACAUGAGGAUCACCCAUGUUAUGGGUUGUUAAUCUCAGGUAGGUCGCAGUUGUCGUG [Same State Arginine B GF 21]” is 12-fold higher in “apparent KD of MS2 coat protein” value: 30.7 nM for the first, 379 nM for the second.

Compared with “AAAGAACAUGAGGAUCACCCAUGUACCGAAGGAGCGGCGAAGAAGCCAGGUAGGUCGCGGAACAUGAAGCGAUUAAGAAUUAAUU”, “AACAUGAGGAUCACCCAUGUCCCUCCCUCCCGAGGACCGGUACGGCCGCCACUCGCCCUCCCUCCCUAAGAAAGAAAGAAGAAGA [Same State - Trypopjan A]” is 2-fold higher in “apparent KD of MS2 coat protein” value: 19.3 nM for the first, 37.9 nM for the second.

“AAUAAUAACAUGGGUGCACGAGUGGCAUAACGAGGACCGGUACGGCCGCCACUCGAACAUGAGGAUCACCCAUGUAGCCACUCGA [M'-T'-T-MS2-T'' - Design 4]” and “GACCUUAUCUGAAGGAGCGAGGUAAAUAGGGAUAGGAACAUGAGGAUCACCCAUGUGCGGCCUCAGGUAGGUCGCAGAUGAGAUU [Exclusion Arginine B GF28]” are within 1.5-fold of each other in “apparent KD of MS2 coat protein” value: 102 nM for the first, 93.7 nM for the second.

First: GCUGUUGCGGUGAGGUAUCCGGCUGUGGAAGGAGCGCGGAAGGCCGCAGGUAGGUCGCCACAUGAGGAUCACCCAUGUCGAUAUA [Aninati]
Second: GUGGAGACCUCGGCCGCCACUCUCCAUGAGGAUCUCCCAUGUAACAUGAGGAUCACCCAUGUGCUGAGGACCGGGAGGUCCUGAA [Same State Tryptophan B GF 19]
The “apparent KD of MS2 coat protein” value of the first is 1.8-fold higher: 16.9 nM for the first, 9.47 nM for the second.

First: AAUAAUAAGGCGGCCGCCACUAAACAUGAGGAUCACCCAUGUCUCGAGCGCUUGCAUUUGGGAAGUAGGACCGGGCCAAUAAUAA [Exclusion - Tryptophan B (Freestyle 4)]
Second: UGGUACAUGAGGAUCACCCAUGUUCCAGAUACCAGUGUCCCGCUGCACCCUUGGCAGCUGGUGGUACAUGAGGAUCACCCAUGUG [Exclusion Theophylline A GF11]
The “apparent KD of MS2 coat protein” value of the first is 1.6-fold lower: 21.4 nM for the first, 34.1 nM for the second.

Going from “AAAAUCCUACCUGAGGAUCACCCGGGUGAAGGAGCGCCCGAAAGGGCAGGUAGGUCGCACCUGAGGAUCACCCUGGUAAACCUAA [ArgEX 23 #DoubleMS2 #OpenEnded]” to “GCUAGCCGAAAGGCUAGCAGCGCUACAGAAGGAGCGUGCGAAAGCACAGGUAGGUCGCUGAACAUGAGCAUCAGCCAUGUUGCGC [SSAA - Alter Amptam #2 V2+NP]”, the “apparent KD of MS2 coat protein” value falls from 172 nM to 12.2 nM (14-fold).

Same assay, conditions: Eterna round: R107; input ligand: theophylline 20 uM

“ACUGCUUUAGCGGCCGCCACUACAUGGACACUUACACUUUCUUGUUACAUGAGGAUCACCCAUGUUAGGACCGGGCUUGUACGGA [theeternabot_exclusion_MS2_Trp_B_31]” and “AAAAGAGGUGGAAGGAGCGGGAGACAUGAGGAUCACCCAUGUGAAGUUACGAAAGGUUCAGCCCAGGUAGGUCGCCAUGUCGAAA [eefemullin]” are within 1.5-fold of each other in “apparent KD of MS2 coat protein” value: 82.6 nM for the first, 55.1 nM for the second.

“ACAUGAAGAACAGCGGUGGGCGCGCUCGAUACCAGUAUUUUAACCUACCCUUGGCAGCGACAUGAGGAUCACCCAUGUGAGAUGA [XTheo A #7]” and “GUAUGGAAACAUACUAGGGUAUCAUGAGAUACCAGUACAGAAAUGUACCCUUGGCAGCUCUAGCAUACAUGAGGAUCACCCAUGU [Ex Theophylline A 6]” are within 1.5-fold of each other in “apparent KD of MS2 coat protein” value: 26.8 nM for the first, 20 nM for the second.

Compared with “AAUAAGCAGCUGCCUUCCUCAUGAGCAGAUACCAGCUAGGAAACUAGCCCUUGGCAGCUGCAACAUGAGGAUCACCCAUGUAAUA [(T)'-(M)'-(T1)-(T2)-(M1)-(M2)_Design4]”, “UCUUACUUGGUAGAUACCAGCGUGUUAUCUUUCUUUUGACAUGAGGAUCACCCAUGUAUAUGCCCUUGGCAGCUGCGUAGUGUGU [#03 Same State - Theophylline B]” is 2.3-fold lower in “apparent KD of MS2 coat protein” value: 81.2 nM for the first, 35.7 nM for the second.

First: AGAGUCAGACAAAAGUCUGGCUCAGCCGAAGGAGCGUCCGAAAGGACAGGUAGGUCGCGGUUACCUGAGGAUCACCCGGGUUCCU [ArgAS 25 #OpenEnded #AlternativeMS2]
Second: UCCUGCAGAGCGGCCGCCACUGUAUUGCGUGAGGAUGACCCAACAUGAGGAUCACCCAUGUUGUUUAGGACCGGGCUUGCCACGA [opmullin%]
The “apparent KD of MS2 coat protein” value of the first is 18-fold higher: 377 nM for the first, 21.2 nM for the second.

Compared with “AGUCUUAAAGGAAGGAGCGCAGUCAUAACAUGAGGAUCACCCAUGUCGAUGUGAGGGUCAUUGCAGGUAGGUCGCCUUACUAAGA [Same State - Arginine B (Freestyle 5)]”, “UUGUUGUACGGAAGGAGCGUGUAAGAUUAAGAACAUGAGGAUCACCCAUGUUUUAAGGGAACACAGGUAGGUCGCCGUGUGGUGG [11.Q]” is 2.3-fold lower in “apparent KD of MS2 coat protein” value: 46 nM for the first, 20 nM for the second.

Compared with “ACAUUUAACUGAAGGAGCGUGAUAUACAUGAGGAUCACCCAUGUGUCUUUCAUGAAUAAUUCACAGGUAGGUCGCAGACUAAUGA [JR_ExcArginiB_Sub008]”, “UUUAUUAUUGACUCGUUUUGGUAUUAAGAACGAGGACCGGUACGGCCGCCACUCGUGAUAUACAUGAGGAUCACCCAUGUUAGCA [JR_Nu_SSTryptoA_Sub021]” is 2.6-fold lower in “apparent KD of MS2 coat protein” value: 50.3 nM for the first, 19.4 nM for the second.

Compared with “AGUAGCUGCCGAAGGAGCGCCGUGUUCCUACAUGAGGAUCACCCAUGUAGCGUUGGGUUACGGCAGGUAGGUCGCGGCGGAUAGG [Same State - Arginine B / B]”, “GCUAGUGGCAGAAGGAGCGACAUUAAAAGUGGUCGAUACAUGAGGAUCACCCAUGUACUAUGUCAGGUAGGUCGCUGCCACUAGC [EAB NP+V+V2 #4 +-Same Structure]” is 3-fold lower in “apparent KD of MS2 coat protein” value: 119 nM for the first, 39.1 nM for the second.

Compared with “UCACGGCACUGAAGGAGCGAGUUGACAAACAUGAGGAUCACCCAUGUUAUGGGUUGUUAAUCUCAGGUAGGUCGCAGUUGUCGUG [Same State Arginine B GF 21]”, “AAAGAACAUGAGGAUCACCCAUGUACCGAAGGAGCGGCGAAGAAGCCAGGUAGGUCGCGGAACAUGAAGCGAUUAAGAAUUAAUU” is 16-fold lower in “apparent KD of MS2 coat protein” value: 418 nM for the first, 25.7 nM for the second.

“UCUUACUUGGUAGAUACCAGCGUGUUAUCUUUCUUUUGACAUGAGGAUCACCCAUGUAUAUGCCCUUGGCAGCUGCAUAGUGUGU [#02 Same State - Theophylline B]” and “AACAUGAGGAUCACCCAUGUCCCUCCCUCCCGAGGACCGGUACGGCCGCCACUCGCCCUCCCUCCCUAAGAAAGAAAGAAGAAGA [Same State - Trypopjan A]” are within 1.5-fold of each other in “apparent KD of MS2 coat protein” value: 41.7 nM for the first, 38 nM for the second.
